# From the DeepSol protein solubility set
# Test: soluble on expression in E. coli; label from the status in PepcDB or PDB records
row,Sequence,soluble on expression in E. coli
1,MRKRARIIYNPTSGKELFKRELPDALIKLEKAGYETSAYATEKIGDATLEAERAMHENYDVLIAAGGDGTLNEVVNGIAEKPNRPKLGVIPMGTVNDFGRALHIPNDIMGALDVIIEGHSTKVDIGKMNNRYFINLAAGGQLTQVSYETPSKLKSIVGPFAYYIKGFEMLPQMKAVDLRIEYDGNVFQGEALLFFLGLTNSMAGFEKLVPDAKLDDGYFTLIIVEKSNLAELGHIMTLASRGEHTKHPKVIYEKAKAINISSFTDLQLNVDGEYGGKLPANFLNLERHIDVFAPNDIVNEELINNDHVDDNLIEEMAGDPLEHHHHHH,not soluble
2,MRLDGKTALITGSARGIGRAFAEAYVREGARVAIADINLEAARATAAEIGPAACAIALDVTDQASIDRCVAELLDRWGSIDILVNNAALFDLAPIVEITRESYDRLFAINVSGTLFMMQAVARAMIAGGRGGKIINMASQAGRRGEALVGVYCATKAAVISLTQSAGLNLIRHGINVNAIAPGVVDGEHWDGVDAKFADYENLPRGEKKRQVGAAVPFGRMGRAEDLTGMAIFLATPEADYIVAQTYNVDGGNWMS,soluble
3,MRLIVVGIAEDITEKKQLETELQRLATTDVLTQSSNRRHFFECANREFEQARLQGSSLAFLLLDIDDFKVINDTYGHPEGDIVLQRIAESGRAALRRGDLFGRIGGEEFAAVFPGCTADMARQVAERLQREIQRQNFSHQGQTFTITVSQGLTGLLAEDESLDNLFARADSAMYEAKRQGKNRIITGLEHHHHHH,not soluble
4,MRLLTIGSGLRGAKVAEILHKKGVKVNRVPLFKCFAVLNNEEHLRSISIGDDRKYYVHGLKGDVSGFVNQITSLYEIFEGSLVLTSLEDDFGYITSLELCQRLRKVTEDAVISLAIVPQLDTSSIGEIKKRIRSLRDVSDILILFEGEVGVERKILEVMNLVALAGEIDLKKRVAGEVVVDTSDVFNALKSDGFAIAGLAERKIPFNFKNLIFRRNSELKAVRTRRMIELTEEALQNVSINGDVENAKSALLLFAGKPDELTMEGLFSSIAMIENINRDIVVRYGDYPIPGSRKVSAVLIFSGIRKFRFA,soluble
5,MRLVQDYDQQPIMYDEVELLIQAVDQQPHPLLRLRDKAIIQLGLQGGFRRSELANLKVHYLSFMRDKLKVRLPFSKSNQQGLREWKSLPDSEPFAAYHAVKSWLNESQITDGHLFRSISRDGKTLRPYHVNDNSKPKSTFSRNSGFLNGDDIYRIIKQYCLKAGLPAQYYGAHSLRSGCVTQLHENNKDILYIMARTGHTDPRSLRHYLKPKEDLEHHHHHH,soluble
6,MRLYINEIKIKDDILYCYTEDSIKGLSEVGQMLVDSDNYAFAYTLDDGKAYAYLIFVQETWTMLHENTTKKIIINDELELTEFHQELTYILDNIKGNNNYGKEFVATVEETFDIE,not soluble
7,MRNEEKHALRRELRRARAQMGHQGRLAAGQTINRLLKRYIKRGRKIGVYWPMGKELRLDGFVRAAQKRGAKLYLPYIEPRSRRMWFTPYPESGMERERIRGRAKLNVPQFAGRKIRVHGLSVLLVPLVGIDREGYRLGQAGGYYDATLAAMKYRLQAKTVGVGFACQFVDRLPREPHDLLLDGFVSEAGILCFLEHHHHHH,not soluble
8,MRNEEKRALRRELRGRRSQMGRDVRAAATVKINHLLKRYIKKGRKIGVYWPMGKELRLDGFVRAAQKRGAELYLPYIEPRSRRMWFTPYPADGVKQERKRGRAKLHVPQFAGRKKRVHDLNLLLVPVVGMDRLGYRLGQAGGYYDATLSAMKYRLQAKTVGVGFACQLVDRLPVEAHDRSLDGFVSEAGILCF,not soluble
9,MRNIGIIINKEKDKENKILNLVILKVKEYLNPDEIKVIDQFYKGDYKDLMSLDLLIVLGGDGTLLGVARKFSTVIDTPILGINIGNLGFLVTAEISELDEALYRIKVGDYKVEERMLLSCTIEGVTCSEERALNDIVVARGTLSRMAQYEVFINDELYATFKGDGVIISTPVGSTAYSFSAGGPLIMPDLQIVSIVPICPHTPNSRPMIIDGNNKVRVKPLINESDVFVTIDGQKALKLEKHNEVLIKKAKEFFRIISFDNKSYFKVLRKKLFKIELEHHHHHH,not soluble
10,MRNLAIVDLGSNSARMAVSRLHANGTAQEIKRVKEDTRLSEGMGTAHVLQPAAIERTIKALLNFRRLYEKMPNTDVIGITTAAVRMAQNQTEFLNQVKQEVGLDLRVLSGDDEAYYDYLGVANSLVIHDCLILDTGGASCELILVKNGRKQQLISIPFGAVTLSEQFGLDDLVPSASLFRAQMFLRNRLADIWWLSEAVHFPIILLGGANRTLARINRRRQQKLKVEDIHGYRLKTETVFHTFLDLLSRSKKGRQEISGMEYDRADIIVGGMLPLVTLLQMLDSDRVIFSESGVREGIISEHLNQLEHHHHHH,not soluble
11,MRNTVNILGIPIDNVSMDEALNVVKGFLSEDRVHTVYTPNSEIMMAAQRDPELKKILCEADLLVPDGAGVVLASKINGCPLKERVAGFDLTNMLFSDEAAKAVNFFFLGGKPGVAEEAYKNLLDRKININVVGIRNGYFTKDEEEEIIRQINDSNTDVLLVALGAPKQEKWIHANKEKLKVKVCIGVGGTFDVLAGRAKRAPVFFQKHGLEWLYRLYKEPWRFVRMLDLPRFILRVIANKIRPEKPERA,soluble
12,MRPEDEALIVACIPSLRRYARGLTGERDRADDLVQDTLERAWSRFSRWQRRGELRAWMFGIMHNQFIDGLRAQKRQADYGAETEIPELPVRATQADRLEVRDLDRHLQRLPADLRAVLLLVAVEEFTYREAAQVLEVPIGTVMSRLSRARERLAALLQVQAEAPAASTVQRIRAT,not soluble
13,MRPLKISRDELLQRCAGTFRRYGYHGTTMEMLSSACGLTKASFYHHYPNKEALLRDVLEWTHQRLAETLFSIAYDPLLTPRERLEKLGRKAARLFQDDSIGCLMGVVAVDASYGRSELMAPIRSFLDDWAQAFAQLYRPAFDEAQALERGRQLVADFEGAILLARIYGEPGYIDGVTRRALEQLAG,not soluble
14,MRPLTLHTPKPLVRAGGIPLIEYHLNALRAAGFHQLVINHAWLGQQIEDYLGDGQRFDLSIRYSAEGQPLETGGGIQRALPLLGAEPFVVVNGDVWTDYDFGALRMPLAGLAHLVLIDNPAHHPTGDFSLVDGQVRDDDSAGLRLTYSGIAILHPQLFADCEPGAFKLAPLLREAMHQGLVTGEHFKGRWVDVGTHERLAEVEQLLAETRLEHHHHHH,not soluble
15,MRRAGYLHLYGLNLVFDRVGKGPPVLLVAEEASRWPEALPEGYAFYLLDLPGYGRTEGPRMAPEELAHFVAGFAVMMNLGAPWVLLRGLGLALGPHLEALGLRALPAEGVEVAEVLSSKLSYGNIDLGGNL,soluble
16,MRRCIELAKNGLCNVAPNPMVGAVIVCDGLIIGEGYHIRCGEAHAEVNAIRSVKDKSLLSRSTIYVSLEPCSHYGKTPPCADLIIEKQIPRIVIGCQDPFSQVAGRGIQKLRDAGREVTVGVLEKECRYLIRRFITFNTLHRPFITLKWAESADHFIDVERTDGNPVVLSSPLTSMLVHKKRAETDAIMVGRRTALLDNPSLTVRNWYGRNPVRIVLDRALSLPHSLRLFDGEVPTIVFTAEKHPDKKNVTYRTIEFTQDILPQIMKVLYQQKIQSLLVEGGSQLLQSFIDAELWDEVYIEKCPCKLNSGVKAPEISDNFSYSTEKHFDRQIWHYVFEK,not soluble
17,MRRHAIILAAGKGTRMKSKKYKVLHEVAGKPMVEHVLESVKGSGVDQVVTIVGHGAESVKGHLGERSLYSFQEEQLGTAHAVQMAKSHLEDKEGTTIVVCGDTPLITKETLETLIAHHEDANAQATVLSASIQQPYGYGRIVRNASGRLERIVEEKDATQAEKDINEISSGIFAFNNKTLFEKLTQVKNDNAQGEYYLPDVLSLILNDGGIVEVYRTNDVEEIMGVNDRVMLSQAEKAMQRRTNHYHMLNGVTIIDPDSTYIGPDVTIGSDTVIEPGVRINGRTEIGEDVVIGQYSEINNSTIENGACIQQSVVNDASVGANTKVGPFAQLRPGAQLGADVKVGNFVEIKKADLKDGAKVSHLSYIGDAVIGERTNIGCGTITVNYDGENKFKTIVGKDSFVGCNVNLVAPVTIGDDVLVAAGSTITDDVPNDSLAVARARQTTKEGYRK,not soluble
18,MRRLLLTLILAATLLGCSQAPQEKLKVGILPIEDSLPIVVADEQGFFKKHGLDVEVIQFSSAVERDAALTAGEVDAVITDPLAVILLRDKGYDVRIASLCLGKTPKEGVFAILAAPNSDIDSVEDLDGKEIAVSLNTIIEYALDVMLSEYGLNYTKISIPKIPIRMQALLNGNVETAVLPEPLASYAVSKGAKLILSDAMLNESITQTVIVFRGDVDDEKVQKFLEAYREAVREINANKEKYREKFIEIARVPENIAGSYPIPDYPEPQQLPKEYYDRYLEWAMQRGLIEKPVPYEEAIR,not soluble
19,MRRLPPWMLGGASTGEAAARNGSQPEAPKTKAEKRPKRVQKTKEKDLNLKSDEPKRVPRKIREEAKRSPEVIQSVTVPEDDDLTVDDLLSFANEYVQRDEEGTRKERERSLSVSETTLVLDETNMTTSSQGGTKDSTAEDMLQLLMGPFYKKR,soluble
20,MRRRQRRQSSNIFHMLTKNQIVELREAFNFMDVNSDTFVDRGDLENFLASIGSPFSESEIDEMMAEGGDSMTYMLFLTMIGERLSCTDSEKSIFNALKEFDDNGDGTIDEKVLREWLTEKGDRMADEDVNLLLRDCVENGRIDCRSLTTKMKYGEIINE,not soluble
21,MRRRSGINTSAVRYCLRKRKDITLLNPIVRKFQYGQHTVTLETGMMARQATAAVMVSMDDTAVFVTVVGQKKAKPGQDFFPLTVNYQERTYAAGRIPGSFFRREGRPSEGETLIARLIDRPIRPLFPEGFVNEVQVIATVVSVNPQVNPDIVAMIGASAALSLSGIPFNGPIGAARVGYINDQYVLNPTQDELKESKLDLVVAGTEAAVLMVESEAELLSEDQMLGAVVFGHEQQQVVIQNINELVKEAGKPRWDWQPEPVNEALNARVAALAEARLSDAYRITDKQERYAQVDVIKSETIATLLAEDETLDENELGEILHAIEKNVVRSRVLAGEPRIDGREKDMIRGLDVRTGVLPRTHGSALFTRGETQALVTATLGTARDAQVLDELMGERTDTFLFHYNFPPYSVGETGMVGSPKRREIGHGRLAKRGVLAVMPDMDKFPYTVRVVSEITESNGSSSMASVCGASLALMDAGVPIKAAVAGIAMGLVKEGDNYVVLSDILGDEDHLGDMDFKVAGSRDGISALQMDIKIEGITKEIMQVALNQAKGARLHILGVMEQAINAPRGDISEFAPRIHTIKINPDKIKDVIGKGGSVIRALTEETGTTIEIEDDGTVKIAATDGEKAKHAIRRIEEITAEIEVGRVYTGKVTRIVDFGAFVAIGGGKEGLVHISQIADKRVEKVTDYLQMGQEVPVKVLEVDRQGRIRLSIKEATEQSQPAAAPEAPAAEQGE,not soluble
22,MRRYASYPTYSSVHPVGLISRVSGASGIGCRMRRYASYPTYSSVHPVGLISRVSGASGIGCRMRRYASYPTYSSVHPVGLISHVSGASGIGCRMRRHPSYPTYSSVHLVGLISRVSDASGIGCRIQSTGVFYFTWLRANRLSSFSSYWLEHHHHHH,not soluble
23,MRSAFRVIRTVREKHACTQCDAIVQAPAPSRPIERGIAGPGLLARVLTSKYAEHTPLYRQSEIYGRQGVELSRSLLSGWVDACCRQLSPLEEALHGYVLTDGKLHADDTPVPVLLPGNKKTKTGRLWTYVRDDRNAGSTLAPAVWFAYSPDRKGIHPQTHLAGFSGVLQADAYAGFNELYRDGRITEAACWAHARRKIHDVHVRTPSALTEEALKRIGELYAIEAEIRGMTAEQRLAERQLKTKPLLKSLESWLREKMKTLSRHSELAKAFAYALNQWPALTYYADDGWAEADNNIAENALRMVSLGRKNYLFFGSDHGGERGALLYSLIGTCKLNGVEPESYLRYVLDVIADWPINRVGELLPWRVALPTE,not soluble
